Experimental data reported in patent publication US20260098059A1 (ENDOMET BIOSCIENCES, published 2026).
Values joined by “and” are separate entries in the source; they are usually repeats but may differ in a detail not shown here. Identical values can stand only once. Bridges are numbered along the chain shown (N, C = ends). [ ]: non-standard residue; d: D form. The star is where a group is joined. Chg = N[C@H](C(=O)O)C1CCCCC1; Lauroyl = CCCCCCCCCCCC(=O)*; NMeA = CN[C@@H](C)C(=O)O

T1: β-catenin (UniProt P35222 134-665, limits assumed, biotinylated in the SPR and plate assays)
T1 construct: also called beta catenin; biotinylated β-catenin
T1 sequence (looked up): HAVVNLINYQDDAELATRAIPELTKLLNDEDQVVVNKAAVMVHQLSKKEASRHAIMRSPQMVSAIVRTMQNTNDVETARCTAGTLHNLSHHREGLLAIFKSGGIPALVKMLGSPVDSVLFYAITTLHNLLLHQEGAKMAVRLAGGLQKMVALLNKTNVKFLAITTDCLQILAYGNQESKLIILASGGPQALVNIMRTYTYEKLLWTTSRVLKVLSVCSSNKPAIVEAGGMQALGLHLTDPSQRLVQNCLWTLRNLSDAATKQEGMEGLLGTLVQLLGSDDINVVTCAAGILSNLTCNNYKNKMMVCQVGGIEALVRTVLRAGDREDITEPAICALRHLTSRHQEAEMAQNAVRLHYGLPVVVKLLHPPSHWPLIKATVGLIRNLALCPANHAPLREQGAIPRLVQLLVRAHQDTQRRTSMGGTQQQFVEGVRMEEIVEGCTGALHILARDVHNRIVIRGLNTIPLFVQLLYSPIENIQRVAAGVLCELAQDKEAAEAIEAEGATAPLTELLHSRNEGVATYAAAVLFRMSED


How the values were obtained:
[1] = target: T1, β-catenin; test: competitive FP
Method in brief: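 Competitive fluorescence polarization with inhibitor peptide serially diluted from 10 nM to 30 uM; polarization read at 470 nm excitation, 520 nm emission. Experiments performed three times.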

[2] = target: T1, β-catenin; test: cell-based or functional assay
[3] = target: T1, β-catenin; test: SPR (Biacore)
Protocol: Biotinylated protein (beta catenin) was immobilized on a high-affinity streptavidin (SA) sensor chip (GE). Peptide at increasing concentrations was flowed over in HBS EP+ buffer at room temperature according to manufacturer's instructions. The maximum binding capacity of the surface (response at saturation) was calculated using the Biacore® system (GE) instructions and binding was measured at each concentration as a data point. The binding levels were determined over a range of analyte concentrations of at least from 20% to 80% saturation of the surface. On rates, off rates, and KD were calculated using Biacore® Insight Evaluation Software software (GE).

Kd [1]	Wnt Reporter EC50 [2]	Kd [3] [nM]	Proliferation IC50, Wnt dependent cells [2] [nM]	Binder
≤ 400 nM	≤ 7500 nM	–	–	WPQSILDKHGQDVW (not fully specified; Lauroyl-NH-WPQSILDK*H-Chg-QD*VW-NH2) [SEQ ID NO: 463]
≤ 400 nM	≤ 7500 nM	–	–	WPQSILDEHGQKVW (not fully specified; Lauroyl-NH-WPQSILDE*H-Chg-QK*VW-NH2) [SEQ ID NO: 469]
> 400 nM and ≤ 1000 nM	≤ 7500 nM	–	–	Lauroyl-W[NMeA]QKILDEH[Chg]EDVWK-NH2 (lactam 11-15, 4-8 (inferred)) [SEQ ID NO: 465]
–	> 7500 nM and ≤ 15000 nM	112	–	KMSRMWLLISFWG (HELM PEPTIDE1{K.M.S.R.M.W.L.L.I.S.F.W.G}$PEPTIDE1,PEPTIDE1,1:R3-13:R2$$$V2.0; SMILES CC[C@H](C)[C@@H]1NC(=O)[C@H](CC(C)C)NC(=O)[C@H](CC(C)C)NC(=O)[C@H](Cc2c[nH]c3ccccc23)NC(=O)[C@H](CCSC)NC(=O)[C@H](CCCNC(=N)N)NC(=O)[C@H](CO)NC(=O)[C@H](CCSC)NC(=O)[C@@H](N)CCCCNC(=O)CNC(=O)[C@H](Cc2c[nH]c3ccccc23)NC(=O)[C@H](Cc2ccccc2)NC(=O)[C@H](CO)NC1=O) [SEQ ID NO: 25]
–	> 30000 nM	515	–	KMSRMWYLISFWG (HELM PEPTIDE1{K.M.S.R.M.W.Y.L.I.S.F.W.G}$PEPTIDE1,PEPTIDE1,1:R3-13:R2$$$V2.0; SMILES CC[C@H](C)[C@@H]1NC(=O)[C@H](CC(C)C)NC(=O)[C@H](Cc2ccc(O)cc2)NC(=O)[C@H](Cc2c[nH]c3ccccc23)NC(=O)[C@H](CCSC)NC(=O)[C@H](CCCNC(=N)N)NC(=O)[C@H](CO)NC(=O)[C@H](CCSC)NC(=O)[C@@H](N)CCCCNC(=O)CNC(=O)[C@H](Cc2c[nH]c3ccccc23)NC(=O)[C@H](Cc2ccccc2)NC(=O)[C@H](CO)NC1=O) [SEQ ID NO: 27]
–	> 7500 nM and ≤ 15000 nM	110	–	KMWFLISFWG (HELM PEPTIDE1{K.M.W.F.L.I.S.F.W.G}$PEPTIDE1,PEPTIDE1,1:R3-10:R2$$$V2.0; SMILES CC[C@H](C)[C@@H]1NC(=O)[C@H](CC(C)C)NC(=O)[C@H](Cc2ccccc2)NC(=O)[C@H](Cc2c[nH]c3ccccc23)NC(=O)[C@H](CCSC)NC(=O)[C@@H](N)CCCCNC(=O)CNC(=O)[C@H](Cc2c[nH]c3ccccc23)NC(=O)[C@H](Cc2ccccc2)NC(=O)[C@H](CO)NC1=O) [SEQ ID NO: 26]
–	≤ 7500 nM	130	–	H-MIRMWFLISFWG-OH [SEQ ID NO: 15]
–	> 30000 nM	1370	–	H-MWESILDEHVQRVWG-OH [SEQ ID NO: 22]
–	> 22500 nM and ≤ 30000 nM	803	–	KMSRMWFLISLWG (HELM PEPTIDE1{K.M.S.R.M.W.F.L.I.S.L.W.G}$PEPTIDE1,PEPTIDE1,1:R3-13:R2$$$V2.0; SMILES CC[C@H](C)[C@@H]1NC(=O)[C@H](CC(C)C)NC(=O)[C@H](Cc2ccccc2)NC(=O)[C@H](Cc2c[nH]c3ccccc23)NC(=O)[C@H](CCSC)NC(=O)[C@H](CCCNC(=N)N)NC(=O)[C@H](CO)NC(=O)[C@H](CCSC)NC(=O)[C@@H](N)CCCCNC(=O)CNC(=O)[C@H](Cc2c[nH]c3ccccc23)NC(=O)[C@H](CC(C)C)NC(=O)[C@H](CO)NC1=O) [SEQ ID NO: 28]
≤ 400 nM	≤ 7500 nM	–	–	Lauroyl-W[NMeA]QSILDKH[Chg]QDVW-NH2 (lactam 8-12; not fully specified; printed as Lauroyl-NH-W-NMeA-QSILDK*H-Chg-QD*VW-NH2) [SEQ ID NO: 461]
> 400 nM and ≤ 1000 nM	≤ 7500 nM	–	–	MWFLISFWAG (HELM PEPTIDE1{M.W.F.L.I.S.F.W.[meA].G}$$$$V2.0; SMILES CC[C@H](C)[C@H](NC(=O)[C@H](CC(C)C)NC(=O)[C@H](Cc1ccccc1)NC(=O)[C@H](Cc1c[nH]c2ccccc12)NC(=O)[C@@H](N)CCSC)C(=O)N[C@@H](CO)C(=O)N[C@@H](Cc1ccccc1)C(=O)N[C@@H](Cc1c[nH]c2ccccc12)C(=O)N(C)[C@@H](C)C(=O)NCC(=O)O) [SEQ ID NO: 45]
> 400 nM and ≤ 1000 nM	≤ 7500 nM	–	–	H-MWFLISFWEG-OH [SEQ ID NO: 47]
≤ 400 nM	> 30000 nM	270	–	KMSRMWFLISFWRG (HELM PEPTIDE1{K.M.S.R.M.W.F.L.I.S.F.W.R.G}$PEPTIDE1,PEPTIDE1,1:R3-14:R2$$$V2.0; SMILES CC[C@H](C)[C@@H]1NC(=O)[C@H](CC(C)C)NC(=O)[C@H](Cc2ccccc2)NC(=O)[C@H](Cc2c[nH]c3ccccc23)NC(=O)[C@H](CCSC)NC(=O)[C@H](CCCNC(=N)N)NC(=O)[C@H](CO)NC(=O)[C@H](CCSC)NC(=O)[C@@H](N)CCCCNC(=O)CNC(=O)[C@H](CCCNC(=N)N)NC(=O)[C@H](Cc2c[nH]c3ccccc23)NC(=O)[C@H](Cc2ccccc2)NC(=O)[C@H](CO)NC1=O) [SEQ ID NO: 24]
> 400 nM and ≤ 1000 nM	≤ 7500 nM	314	–	H-MWFLISFWG-OH [SEQ ID NO: 17]
≤ 400 nM	> 30000 nM	1590	–	H-MWESILDEHMQRVWRG-OH [SEQ ID NO: 23]
≤ 400 nM	≤ 7500 nM	–	–	Lauroyl-W[NMeA]QSILDEH[Chg]QKVWG-NH2 (lactam 8-12; not fully specified; printed as Lauroyl-NH-W-NMeA-QSILDE*H-Chg-QK*VWG-NH2) [SEQ ID NO: 471]
–	> 30000 nM	123	–	KMAESILDEHVQRVWG (HELM PEPTIDE1{K.M.[meA].E.S.I.L.D.E.H.V.Q.R.V.W.G}$PEPTIDE1,PEPTIDE1,1:R3-16:R2$$$V2.0; SMILES CC[C@H](C)[C@@H]1NC(=O)[C@H](CO)NC(=O)[C@H](CCC(=O)O)NC(=O)[C@H](C)N(C)C(=O)[C@H](CCSC)NC(=O)[C@@H](N)CCCCNC(=O)CNC(=O)[C@H](Cc2c[nH]c3ccccc23)NC(=O)[C@H](C(C)C)NC(=O)[C@H](CCCNC(=N)N)NC(=O)[C@H](CCC(N)=O)NC(=O)[C@H](C(C)C)NC(=O)[C@H](Cc2c[nH]cn2)NC(=O)[C@H](CCC(=O)O)NC(=O)[C@H](CC(=O)O)NC(=O)[C@H](CC(C)C)NC1=O) [SEQ ID NO: 30]
≤ 400 nM	–	58.2	–	H-GGGDDLGANDELISFKDEGEQEEKSSENSSAERDLADVKSSLVNEK-NH2 (Tcf4 residues 7-51 with an added C-terminal K, amidated) [SEQ ID NO: 266 (H2N-Tcf4(7-51)-K-CONH2)]
≤ 400 nM	≤ 7500 nM	–	–	Lauroyl-W[NMeA]QSILDEH[Chg]QKVW-NH2 (lactam 8-12; not fully specified; printed as Lauroyl-NH-W-NMeA-QSILDE*H-Chg-QK*VW-NH2) [SEQ ID NO: 467]
≤ 400 nM	–	–	18500	GWWESILDEHVQRVWG (HELM PEPTIDE1{[CCCCCCCCCCCCCC(=O)[*:2]].G.W.[meW].E.S.I.L.D.E.H.V.Q.R.V.W.G}$$$$V2.0; SMILES CCCCCCCCCCCCCC(=O)NCC(=O)N[C@@H](Cc1c[nH]c2ccccc12)C(=O)N(C)[C@@H](Cc1c[nH]c2ccccc12)C(=O)N[C@@H](CCC(=O)O)C(=O)N[C@@H](CO)C(=O)N[C@H](C(=O)N[C@@H](CC(C)C)C(=O)N[C@@H](CC(=O)O)C(=O)N[C@@H](CCC(=O)O)C(=O)N[C@@H](Cc1c[nH]cn1)C(=O)N[C@H](C(=O)N[C@@H](CCC(N)=O)C(=O)N[C@@H](CCCNC(=N)N)C(=O)N[C@H](C(=O)N[C@@H](Cc1c[nH]c2ccccc12)C(=O)NCC(=O)O)C(C)C)C(C)C)[C@@H](C)CC) [SEQ ID NO: 1]
